B1: Hairpin Ribozyme (parent)
chain: GUCCUCUUUCACGUGCGCGUGAAAGAGAGAAGUGAACCAGAGAAACACACGUUGUGGUAUAUUACCUGGUA

Variants of: B1
Assay: self-cleavage, relative activity (ratio to wild type); higher = more cleavage; co-transcriptional

| Variant | self-cleavage |
| --- | --- |
| GUCCUCUUUCACGUGCGCGUGAAAGAGAGAAGUAAACCAGAGAAACACACGUUGUGGUGUAUUACCUGGUA | 0.2 |
| GUCCUCUUUCACGUGCGCGUGAAAGAGAGAAGUAGACCAGAGAAACACACGUUGUGGUAUAUUACCUGGUA | 1.1 |
| GUCCUCUUUCACGUGCGCGUGAAAGAGAGAAGUACACCAGAGAAACACACGUUGUGGUAUAUUACCUGGUA | 1.43 |
| GUCCUCUUUCACGUGCGCGUGAAAGAGAGAAGUAAACCAGAGAAACACACGUUGUGGUAUUUUACCUGGUA | 0.218 |
| GUCCUCUUUCACGUGCGCGUGAAAGAGAGAAGGGAACCAGAGAAACACACGUUGAGGUAUAUUACCUGGUA | 0.11 |
| GUCCUCUUUCACGUGCGCGUGAAAGAGAGAAGGGAACCAGAGAAACACACGUUGGGGUAUAUUACCUGGUA | 0.0574 |
| GUCCUCUUUCACGUGCGCGUGAAAGAGAGAAGGGAACCAGAGAAACACGCGUUGUGGUAUAUUACCUGGUA | 0.135 |
| GUCCUCUUUCACGUGCGCGUGAAAGAGAGAAGGGAACCAGAGAAACACCCGUUGUGGUAUAUUACCUGGUA | 0.114 |
| GUCCUCUUUCACGUGCGCGUGAAAGAGAGAAGGGAACCAGAGAAACACACGUAGUGGUAUAUUACCUGGUA | 0.138 |
| GUCCUCUUUCACGUGCGCGUGAAAGAGAGAAGGGAACCAGAGAAACACACGUUGUGGGAUAUUACCUGGUA | 0.155 |
| GUCCUCUUUCACGUGCGCGUGAAAGAGAGAAGUAAACCCGAGAAACACACGUUGUGGUAUAUUACCUGGUA | 0.456 |
| GUCCUCUUUCACGUGCGCGUGAAAGAGAGAAGUAAACCGGAGAAACACACGUUGUGGUAUAUUACCUGGUA | 0.768 |
| GUCCUCUUUCACGUGCGCGUGAAAGAGAGAAGUAAACCUGAGAAACACACGUUGUGGUAUAUUACCUGGUA | 0.304 |
| GUCCUCUUUCACGUGCGCGUGAAAGAGAGAAGGGAAACAGAGAAACACACGUUGUGGUAUAUUACCUGGUA | 0.109 |
| GUCCUCUUUCACGUGCGCGUGAAAGAGAGAAGGGAAGCAGAGAAACACACGUUGUGGUAUAUUACCUGGUA | 0.064 |
| GUCCUCUUUCACGUGCGCGUGAAAGAGAGAAGGGAAUCAGAGAAACACACGUUGUGGUAUAUUACCUGGUA | 0.267 |
| GUCCUCUUUCACGUGCGCGUGAAAGAGAGAAGUAAACCAGAGAUACACACGUUGUGGUAUAUUACCUGGUA | 0.113 |
| GUCCUCUUUCACGUGCGCGUGAAAGAGAGAAGGGAACCAGAGAAACACACGUUGUGUUAUAUUACCUGGUA | 0.2 |
| GUCCUCUUUCACGUGCGCGUGAAAGAGAGAAGUAAACCAGAGUAACACACGUUGUGGUAUAUUACCUGGUA | 0.18 |

| Variant | self-cleavage |
| --- | --- |
| GUCCUCUUUCACGUGCGCGUGAAAGAGAGAAGGGAACCAGAGAAACACACGUUGUGGUAUAUUACCGGGUA | 0.0324 |
| GUCCUCUUUCACGUGCGCGUGAAAGAGAGAAGGGAACCAGAGAAACACACGUUGUGGUAUAUUACUUGGUA | 0.21 |
| GUCCUCUUUCACGUGCGCGUGAAAGAGAGAAGGGAACCAGAGAAACACACGUUGUAGUAUAUUACCUGGUA | 0.221 |
| GUCCUCUUUCACGUGCGCGUGAAAGAGAGAAGGGAACCAGAGAAACACACGUUGUGGUAUCUUACCUGGUA | 0.041 |
| GUCCUCUUUCACGUGCGCGUGAAAGAGAGAAGUAAACCAGCGAAACACACGUUGUGGUAUAUUACCUGGUA | 0.826 |
| GUCCUCUUUCACGUGCGCGUGAAAGAGAGAAGGGAACCAGAGAAACACACGUUGUGGUAUAUUACCUGGGA | 0.111 |
| GUCCUCUUUCACGUGCGCGUGAAAGAGAGAAGGGAACCAGAGAAACACACGUUGUGGUAUAUUGCCUGGUA | 0.108 |
| GUCCUCUUUCACGUGCGCGUGAAAGAGAGAAGGGAACCAGAGAAACACACAUUGUGGUAUAUUACCUGGUA | 0.118 |
| GUCCUCUUUCACGUGCGCGUGAAAGAGAGAAGUAAACCAGAGAAACACACGUUGUGGUAUAUUGCCUGGUA | 0.625 |
| GUCCUCUUUCACGUGCGCGUGAAAGAGAGAAGGGAACCAGAUAAACACACGUUGUGGUAUAUUACCUGGUA | 0.153 |
| GUCCUCUUUCACGUGCGCGUGAAAGAGAGAAGUAAACCAGAGAAACACACGUUGUGGUAUAUUACCUGGUU | 1.02 |
| GUCCUCUUUCACGUGCGCGUGAAAGAGAGAAGUAAACUAGAGAAACACACGUUGUGGUAUAUUACCUGGUA | 0.655 |
| GUCCUCUUUCACGUGCGCGUGAAAGAGAGAAGGUAACCAGAGAAACACACGUUGUGGUAUAUUACCUGGUA | 0.0449 |
| GUCCUCUUUCACGUGCGCGUGAAAGAGAGAAGGGAACCAGAGAAAGACACGUUGUGGUAUAUUACCUGGUA | 0.174 |
| GUCCUCUUUCACGUGCGCGUGAAAGAGAGAAGUAAACCAGAGAAAAACACGUUGUGGUAUAUUACCUGGUA | 0.198 |
| GUCCUCUUUCACGUGCGCGUGAAAGAGAGAAGUAAAACAGAGAAACACACGUUGUGGUAUAUUACCUGGUA | 0.534 |
| GUCCUCUUUCACGUGCGCGUGAAAGAGAGAAGGGAACCAGAGAAACACACGUUGUGGUAUAUUACCUGGUG | 0.184 |
| GUCCUCUUUCACGUGCGCGUGAAAGAGAGAAGGGAACCAGAGAAACACAUGUUGUGGUAUAUUACCUGGUA | 0.14 |
| GUCCUCUUUCACGUGCGCGUGAAAGAGAGAAGGGAACCAGAGAAACACAAGUUGUGGUAUAUUACCUGGUA | 0.123 |
